*1 amine or outer side, *2 acyl side, *3 side chain or, on linkers, in order; H or OH if unused. Bridges are numbered along the chain shown (N, C = ends). Where no end group is shown, it is not given here. [ ]: non-standard residue; d: D form. Phe(4-NO2) = N[C@@H](Cc1ccc([N+](=O)[O-])cc1)C(=O)O; Phe(3,4-Cl2) = N[C@@H](Cc1ccc(Cl)c(Cl)c1)C(=O)O; DiPhAla = diphenylalanine (source's own name); Ser(Bzl) = O=C([C@H](COCc1ccccc1)N[*:1])[*:2]; Phe(4-Cl) = N[C@@H](Cc1ccc(Cl)cc1)C(=O)O; 1Nal = N[C@@H](Cc1cccc2ccccc12)C(=O)O; 2Nal = N[C@@H](Cc1ccc2ccccc2c1)C(=O)O; NMeF = CN[C@@H](Cc1ccccc1)C(=O)O; hPhe = N[C@@H](CCc1ccccc1)C(=O)O; 2Thi = N[C@@H](Cc1cccs1)C(=O)O; Cha = N[C@@H](CC1CCCCC1)C(=O)O; NMeL = CN[C@@H](CC(C)C)C(=O)O; Phg = N[C@H](C(=O)O)c1ccccc1; Tle = CC(C)(C)[C@H](N)C(=O)O; NMeV = CN[C@H](C(=O)O)C(C)C; NMeA = CN[C@@H](C)C(=O)O; Nle = CCCC[C@H](N)C(=O)O; Nva = CCC[C@H](N)C(=O)O; Abu = CC[C@H](N)C(=O)O; Aib = CC(C)(N)C(=O)O; Sar = CNCC(=O)O

The first assay deals with T1, full length human TPO-R (human, UniProt P40238 26-635).
T1 sequence (looked up): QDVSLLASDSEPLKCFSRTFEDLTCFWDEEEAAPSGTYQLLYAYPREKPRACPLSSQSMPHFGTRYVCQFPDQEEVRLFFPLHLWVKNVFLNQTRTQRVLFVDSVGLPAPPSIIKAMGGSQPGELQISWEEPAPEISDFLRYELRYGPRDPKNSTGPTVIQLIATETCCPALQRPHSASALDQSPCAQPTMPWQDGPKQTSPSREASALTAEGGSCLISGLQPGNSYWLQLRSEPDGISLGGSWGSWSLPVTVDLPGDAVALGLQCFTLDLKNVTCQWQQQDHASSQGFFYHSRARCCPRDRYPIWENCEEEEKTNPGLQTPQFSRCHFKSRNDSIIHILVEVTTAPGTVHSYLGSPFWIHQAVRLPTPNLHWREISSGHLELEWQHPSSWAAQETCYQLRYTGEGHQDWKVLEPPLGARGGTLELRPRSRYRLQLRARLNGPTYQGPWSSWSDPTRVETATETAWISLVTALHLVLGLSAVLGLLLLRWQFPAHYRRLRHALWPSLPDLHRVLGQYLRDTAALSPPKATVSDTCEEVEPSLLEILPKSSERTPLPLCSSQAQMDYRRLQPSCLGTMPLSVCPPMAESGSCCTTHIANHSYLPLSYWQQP
Kind of assay: cell-based or functional assay.
ADGPTLREWISFC (not fully specified; also: further groups not given here) [[drawing CHEM-US-00013] (SEQ ID NO:173)] came in with an EC50 cell proliferation of at most 500 nM and an EC50 microphysiometer of about 200000 nM. On the same counts, the results for EADGPTLREWISFK (also: further groups not given here) [[drawing CHEM-US-00015] (SEQ ID NO:182)] are at most 200000 nM and at most 200000 nM. KADGPTLREWISFE (also: further groups not given here) [[drawing CHEM-US-00014] (SEQ ID NO:181)] came in with an EC50 cell proliferation of at most 200000 nM and an EC50 microphysiometer of about 200000 nM. Take ADGPTLREWISFC (not fully specified; also: further groups not given here) [[drawing CHEM-US-00006] (SEQ ID NO:173)]: the EC50 cell proliferation was at most 200000 nM and the EC50 microphysiometer was about 200000 nM.

The next assay deals with T1, full length human TPO-R. Kind of assay: cell-based or functional assay. The source holds these as a separate data set.
As to CADGPTLREWI[Nle]FC (disulfide 1-14 (inferred); not fully specified) [SEQ ID NO:12 cyclized, S - (Nor-Leu)], the EC50 cell proliferation was at most 500 nM. The molecule CADGPTLREWIS[Cha]C (disulfide 1-14 (inferred); not fully specified) [SEQ ID NO:12 cyclized, F - CHA] came in with an EC50 cell proliferation of at most 500 nM and an EC50 microphysiometer of at most 500 nM. Regarding CADGPTLREWIS[NMeA]C (disulfide 1-14 (inferred); not fully specified) [SEQ ID NO:12 cyclized, F - (N-Me-Ala)], the EC50 cell proliferation was about 200000 nM. In turn, CADGPTLREWI[Nva]FC (disulfide 1-14 (inferred); not fully specified) [SEQ ID NO:12 cyclized, S - Nva] came in with an EC50 cell proliferation of at most 500 nM and an EC50 microphysiometer of at most 500 nM. Regarding CADGPTLREWI[Aib]FC (disulfide 1-14 (inferred); not fully specified) [SEQ ID NO:12 cyclized, S - Aib], the EC50 cell proliferation was at most 500 nM and the EC50 microphysiometer was at most 200000 nM.

In turn, CADGPTLREWI[Abu]FC (disulfide 1-14 (inferred); not fully specified) [SEQ ID NO:12 cyclized, S - Abu] had an EC50 cell proliferation of at most 500 nM. Take CADGPTLREWIS[2Thi]C (disulfide 1-14 (inferred); not fully specified) [SEQ ID NO:12 cyclized, F - Thi]: the EC50 cell proliferation was at most 500 nM. In turn, CADGPTLREWIS[NMeF]C (disulfide 1-14 (inferred); not fully specified) [SEQ ID NO:12 cyclized, F - (N-Me-Phe)] gave an EC50 cell proliferation of at most 500 nM. CADGPTLREWIS[Ser(Bzl)]C (disulfide 1-14 (inferred); not fully specified) [SEQ ID NO:12 cyclized, F - (Ser(Bzl))] gave an EC50 cell proliferation of at most 500 nM.

Molecule CADGPTLREWI[Sar]FC (disulfide 1-14 (inferred); not fully specified) [SEQ ID NO:12 cyclized, S - Sar] returned an EC50 cell proliferation of about 200000 nM.

Consider CADGPTLREWIS[Phe(4-Cl)]C (disulfide 1-14 (inferred); not fully specified) [SEQ ID NO:12 cyclized, F - (p-Cl-Phe)], for which the EC50 cell proliferation was at most 500 nM. For CADGPTLREWIS[2Nal]C (disulfide 1-14 (inferred); not fully specified) [SEQ ID NO:12 cyclized, F - (2-Nal)], the EC50 cell proliferation is at most 500 nM and the EC50 microphysiometer was at most 500 nM. CADGPTLREWI[NMeA]FC (disulfide 1-14 (inferred); not fully specified) [SEQ ID NO:12 cyclized, S - (N-Me-Ala)] registered an EC50 cell proliferation of about 200000 nM.

With CADGPTLREWI[Tle]FC (disulfide 1-14 (inferred); not fully specified) [SEQ ID NO:12 cyclized, S - (t-Bu-Gly)], the EC50 cell proliferation is about 200000 nM. CADGPTLREWIS[Pyridylala]C (not fully specified (bridges); also: cyclized, type not given here) [SEQ ID NO:12 cyclized, F - (Pyridylala)] showed an EC50 cell proliferation of at most 500 nM. Take CADGPTLREWIS[DiPhAla]C (disulfide 1-14 (inferred); not fully specified) [SEQ ID NO:12 cyclized, F - (DiPh - Ala)]: the EC50 cell proliferation was at most 500 nM. Regarding CADGPTLREWIS[Phg]C (disulfide 1-14 (inferred); not fully specified) [SEQ ID NO:12 cyclized, F - (Phenylgly)], the EC50 cell proliferation was at most 500 nM and the EC50 microphysiometer is at most 500 nM.

The molecule CADGPTLREWI[NMeL]FC (disulfide 1-14 (inferred); not fully specified) [SEQ ID NO:12 cyclized, S - (N-Me-Leu)] displayed an EC50 cell proliferation of at most 200000 nM. For CADGPTLREWIS[1Nal]C (disulfide 1-14 (inferred); not fully specified) [SEQ ID NO:12 cyclized, F - (1-Nal)], the EC50 cell proliferation was at most 500 nM. The molecule CADGPTLREWIS[hPhe]C (disulfide 1-14 (inferred); not fully specified) [SEQ ID NO:12 cyclized, F - Homo-Phe] yielded an EC50 cell proliferation of at most 500 nM and an EC50 microphysiometer of at most 500 nM.

Molecule CADGPTLREWI[NMeV]FC (disulfide 1-14 (inferred); not fully specified) [SEQ ID NO:12 cyclized, S - (N-Me-Val)] yielded an EC50 cell proliferation of at most 200000 nM.

CADGPTLREWIS[Phe(4-NO2)]C (disulfide 1-14 (inferred); not fully specified) [SEQ ID NO:12 cyclized, F - (p-Nitrophe)]: the EC50 cell proliferation is at most 500 nM and the EC50 microphysiometer was at most 500 nM. As for CADGPTLREWIS[Phe(3,4-Cl2)]C (disulfide 1-14 (inferred); not fully specified) [SEQ ID NO:12 cyclized, F - (3,4-di-Cl-Phe)], the EC50 cell proliferation was at most 500 nM and the EC50 microphysiometer was at most 200000 nM.

The target in a further assay is T1, full length human TPO-R. In words: cell-based or functional assay. The source holds these as a separate data set.
In turn, ADGPTLREWISFC (also: further groups not given here) [[drawing CHEM-US-00036] (SEQ ID NO:173)(SEQ ID NO:173)] registered an EC50 cell proliferation of at most 500 nM and an EC50 microphysiometer of at most 500 nM.

PTLREWISFC (not fully specified; also: further groups not given here) [[drawing CHEM-US-00041] (SEQ ID NO:191)(SEQ ID NO:191)] showed an EC50 cell proliferation of at most 500 nM and an EC50 microphysiometer of at most 500 nM. Molecule TLREWISFC (also: further groups not given here) [[drawing CHEM-US-00042] (SEQ ID NO:192)(SEQ ID NO:192)] registered an EC50 cell proliferation of about 200000 nM and an EC50 microphysiometer of about 200000 nM. For TLREWISFC (also: further groups not given here) [[drawing CHEM-US-00043] (SEQ ID NO:192)(SEQ ID NO:192)], the EC50 cell proliferation was about 200000 nM and the EC50 microphysiometer was at most 500 nM.

Molecule ADGPTLREWISFC (also: further groups not given here) [[drawing CHEM-US-00027] / [drawing CHEM-US-00028] (SEQ ID NO:173)] gave an EC50 cell proliferation of at most 500 nM and an EC50 microphysiometer of at most 500 nM. GPTLREWISFC (not fully specified; also: further groups not given here) [[drawing CHEM-US-00038] (SEQ ID NO:190)(SEQ ID NO:190)] had an EC50 cell proliferation of at most 500 nM. ADGPTLREWISFC (also: further groups not given here) [[drawing CHEM-US-00035] (SEQ ID NO:173)(SEQ ID NO:173)] registered an EC50 cell proliferation of at most 500 nM.

The molecule GPTLREWISFC (not fully specified; also: further groups not given here) [[drawing CHEM-US-00039] (SEQ ID NO:190)(SEQ ID NO:190)] yielded an EC50 cell proliferation of at most 500 nM and an EC50 microphysiometer of at most 500 nM. Turning to PTLREWISFC (not fully specified; also: further groups not given here) [[drawing CHEM-US-00040] (SEQ ID NO:191)(SEQ ID NO:191)], the EC50 cell proliferation is at most 500 nM.

Values taken from patent US7091311 (GlaxoSmithKline, dated 2006).
